Literature values in article PMC8698604.
Read-outs that look alike come from different tables or passages of the source.

Key:
plasmin (Homo sapiens) [1] = target: plasmin (Homo sapiens) (UniProt P00747)
fibrin (Homo sapiens) [2] = target: fibrin (Homo sapiens) (UniProt P02671)
fibrin (Homo sapiens) [3] = target: fibrin (Homo sapiens) (UniProt P02671); remark: listed apart in the source
t-PA (Homo sapiens) [4] = target: t-PA (Homo sapiens) (UniProt P00750)
plasmin (Homo sapiens) [5] = target: plasmin (Homo sapiens) (UniProt P00747); remark: listed apart in the source
[6] = target: plasminogen (Homo sapiens) (UniProt P00747)
t-PA (Homo sapiens) [7] = target: t-PA (Homo sapiens) (UniProt P00750); remark: listed apart in the source
plasmin (Homo sapiens) [8] = target: plasmin (Homo sapiens) (UniProt P00747); remark: listed apart in the source
[9] = target: plasminogen (Homo sapiens) (UniProt P00747); remark: listed apart in the source
[10] = target: plasminogen (Homo sapiens) (UniProt P00747); experiment: fluorescence

Sequence of UniProt P00750 (P00750 36-562): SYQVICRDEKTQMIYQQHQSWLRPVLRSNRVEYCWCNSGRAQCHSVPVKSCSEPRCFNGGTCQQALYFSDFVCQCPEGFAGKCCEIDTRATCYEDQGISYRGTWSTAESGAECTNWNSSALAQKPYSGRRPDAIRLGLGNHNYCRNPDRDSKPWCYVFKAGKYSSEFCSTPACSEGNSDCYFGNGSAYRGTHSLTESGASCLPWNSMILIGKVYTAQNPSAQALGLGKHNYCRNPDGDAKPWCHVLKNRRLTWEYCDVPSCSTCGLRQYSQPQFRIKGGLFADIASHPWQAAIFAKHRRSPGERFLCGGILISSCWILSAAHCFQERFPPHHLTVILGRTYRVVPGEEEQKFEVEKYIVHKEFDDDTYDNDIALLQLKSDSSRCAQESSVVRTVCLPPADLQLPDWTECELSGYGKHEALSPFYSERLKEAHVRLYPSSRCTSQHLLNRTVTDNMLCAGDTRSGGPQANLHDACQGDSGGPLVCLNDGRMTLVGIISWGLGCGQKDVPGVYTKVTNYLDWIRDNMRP

In the case of ANXA2 (from UniProt P07355), the Kd (plasmin (Homo sapiens) [1]) is given as 0.78 µM.

For plasminogen (from UniProt P00747), the Kd (fibrin (Homo sapiens) [2]) is given as 0.3 µM and the Kd (fibrin (Homo sapiens) [3]) is given as 30 µM.

In the case of S100A10 (from UniProt P60903), the Kd (t-PA (Homo sapiens) [4]) is listed as 0.45 µM, the Kd (plasmin (Homo sapiens) [5]) is listed as 0.36 µM and the Kd [6] is listed as 1.81 µM.

In the case of “AIIt (ANXA2/S100A10) (from UniProt P07355)”, the Kd (t-PA (Homo sapiens) [7]) is listed as 0.68 µM, the Kd (plasmin (Homo sapiens) [8]) is listed as 0.075 µM and the Kd [9] is listed as 0.11 µM. The Kd [10] was 1 µM.
